For assay [1], the target named is Fcε receptors expressed on the surface of U937 monocytic cells (human (endogenous in U937)). In words: flow cytometry on cells.
The target in assay [2] is recombinant IgE receptor FcεRI alpha (sFcεRIα) (UniProt P12319). In words: SPR. A general note: In SPR one partner is held on a chip, and binding of the other changes the refractive index at the surface.

Usually koff stands for a measure of how fast the partners let go of each other. Usually kon stands for the rate constant with which the complex forms.

Sequence of UniProt P12319 (P12319 26-205): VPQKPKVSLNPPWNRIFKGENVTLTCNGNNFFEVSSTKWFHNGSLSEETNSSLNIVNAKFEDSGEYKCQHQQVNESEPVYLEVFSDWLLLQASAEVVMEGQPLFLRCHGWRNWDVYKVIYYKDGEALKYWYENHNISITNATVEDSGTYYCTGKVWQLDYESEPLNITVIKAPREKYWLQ

For the substance “chimaeric MOv18 IgE antibody against the ovarian cancer antigen FBP”, the percent of cells bound in assay [1] turned out to be 60.6%.
Take chimaeric antibody NIP IgE: in assay [2], the koff stood at 2.6e-05 s⁻¹ and the kon is 230000 M⁻¹ s⁻¹.

These data come from PMC3017872.
